Assay results: the nanobody polyreactivity screen of Harvey et al. (2022)

Assay: yeast display, Sf9 membrane polyspecificity reagent, FACS + sequencing; frameworks hold sequencing errors
Summary of the method: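 Sorting gates, low and high (top ~1%), were placed on anti-HA fluorescence to track expression and on streptavidin fluorescence to track reagent binding. A clone's polyreactivity label is taken from the gate it came out of. The reagent was 10% biotinylated, detergent-solubilized Sf9 membrane, applied for 1 hour at 4 °C to galactose-induced yeast display cells.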

QVQLVETGGGLVQAGGSLRLSCAASGNTFKYYAMGWYRQAPGKERELVAAISYSGGSTYYADSVKGRFTISRDNAKNTVYLQMNSLKPEDTAVYYCAADLDSERYYWGQGTQVTVSS
polyreactivity (PSR sort gate): low polyreactivity

QVQLVESGGGLVQAGGSLRLSCAASGDITYIYAMGWYRQAPGKERELVADISSSVGNTYYADSVKGRFTISRDNAKNTVYLQMNSLKPEDTAVYYCNADYVQPTESGGTYDYWGQGTQVTVSS
polyreactivity (PSR sort gate): low polyreactivity

QVQLVESGGGFVQAGGSLRLSCAASGSTFLVYAMGWYRQAPGKERELVAVIDTGASTNYADSVKGRFTISRDNAKNTVYLQMNSLKPEDTAVYYCAAGFSYFTSVLSLDRYYYWGQGTQVTVSS
polyreactivity (PSR sort gate): low polyreactivity

QVQLVESGGGLVQAGGSLRLSCAASGFTFKYNAMGWYRHAPGKERELVAAISSSDGTNYADSVKGRFTISRDNAKNTVYLQMNSLKQEDTAVYYCAADYFYLEDYYYWGQGSQVTVSS
polyreactivity (PSR sort gate): low polyreactivity

QVQIVESGGGLVQAGGSLRLSCADSGIIFYYNAMGWYRQAPGKERELVAAIDDRGDSTYYADSVKGRFTISRDNAKNTVYLQMNSMKPEDTAVYYCAARDRYLYFDAMDYWGQGTLVTVSS
polyreactivity (PSR sort gate): low polyreactivity

QVQLVESGGGLVQAGGSLRISCAASGSTFWTYAMGWYRQAPGKERELVAAITTGGNTYYADSVKGRFTISRDNAKNTVYLQMNSLKPEDTAVYSCAAASWTYYYSQYGAVFREYDYWGQGTEVTVSS
polyreactivity (PSR sort gate): low polyreactivity

QVQLVESGGGLVQAGGSLRLSCAASGSTFTSYAMGWYRQAPGKERELVATISKISGSTYYADSVKGRFTISRDNAKNTVYLQMNSLKPEDTAVYYCAAKQGWVQSSILWYRAYGYWGQGTQVTVSS
polyreactivity (PSR sort gate): high polyreactivity

QVQLVESGGGLVQAGGSLRLSCAASGIIFYYYGKGWYRQAPGKEREFVAAISTSGGNTYYADSVKGRFTISRDNAKNTVYLQMNSLKPEDTAVYYCAADDWPWGDAGVDYWGQGTQVTVSS
polyreactivity (PSR sort gate): low polyreactivity

QVQLVESGGGLVQAGGSLRLSCAASGRTFDRYAMGWYRQAPGKERELVAAISSGTSTNYADSVKGRFTISRDNAKNTVSLQMNSLKPEDTAVYYCNVDSPLQPYRYYYWGQGTQVTVSS
polyreactivity (PSR sort gate): low polyreactivity

QVQLVESGGGLVQAGGSLRLSCAASGRIFGRYAMGWYRQAPGKDRELVAAISSRGSRTYYADSVKGRFTISRDNAKNTVYLQMNSLKPEVTAVYYCAASWLSYPSDYDYWGQGTQVTVSS
polyreactivity (PSR sort gate): high polyreactivity

QVQLVESGGGLVQAGGSLRLSCAASGITFNRYAMGWYRQAPGKERELVARISLRGGNTYYADSVKGRFTISRDNAKNTVYLQMNSLKPEDTAVYYCNAPYYSRRGNSWGQGTQVTVSS
polyreactivity (PSR sort gate): high polyreactivity

QDQLVDSGGGLDQAGGSLRLSCAASGIIFPRYALGWYRQAPGKERELVAAITRRGGRTYYADSVKGRFTISRDNAKNTVYLQMNSLKPEDTAVYYCNADFISTLPPKATEEDYWGQGTQVTVSS
polyreactivity (PSR sort gate): high polyreactivity

QVQLVESGGGLVQAGGSLRLSCAASGRTFSGYAMGWYRQAPGKERELVAVITYSGGSTYYADSVKGRFTISRDNAKNTVYLQMNSLKPEDTAVYYCNADYVIFYQLVDYDYWGQGTQVTVSS
polyreactivity (PSR sort gate): low polyreactivity

QVQLVESGGGLVQEGGSLRLSCAASGRIFDVYVMGWYRQAPGKERELVDAISQSGGRTYYADSVKGRFTISRDNAKNTVYLQMNSLKPEDTAVYYCNTVTSLATNFSGFGYWGQGTQVTVSS
polyreactivity (PSR sort gate): high polyreactivity

QVQHVESGGGLVQAGGSLRLSCAASGFTSWKYAMGWYRQAPGKERELVAAISQSGGRTYADSVKGRFTISRDNAKNTVYLQMNSLKPEDTAVYYCAARYPRRSQKYQYWGQGTQVTVSS
polyreactivity (PSR sort gate): high polyreactivity

QVQLVESGGGLVQAGGSLRLSCAASGRILRYNALGWYRQAPGTERELVASISGNGGSTYYADSVKGRVTISRDNAKNTVYLQMNSLKPEDTALYYCNKYYYSSRGQKEYDYWGQGTQVTVSS
polyreactivity (PSR sort gate): low polyreactivity

QVQLVESGGGLVQAGGSLRLSCAASGRIFYLNVMGWYRQAPGKERELVAAITRRDVTTYADSVKGRFTISRDNAKNTVYLEMNSLKPEDTAVYYCNAVYYNWIGFDYWGQGTQVTVSS
polyreactivity (PSR sort gate): low polyreactivity

QVQLVESGGGLVQAGGSLRLSCAASGRTFPQNAMGWYRQAPGKERELVAAISRSGGRTYYADSVKGRFTISRDNAKNTVYLQMNSLKPEDTAVYYCNTDPRYPRYDYSGQGTQVTVSS
polyreactivity (PSR sort gate): high polyreactivity

QVQLVESGGGLVQAGGSLRLSCAASGRTFRSYAMGWYRQAPGKEREFVAAISRSGASTRYADSVKGRFTISRDNAKNTVYLQMNSLKPEDTAVYYCAKSWRYSINQSYRAGYNYWGQGTQVTVSS
polyreactivity (PSR sort gate): high polyreactivity

QVQLVESGGGLVQAGGSLRLSCAASGRIYRYVMGWYRQAPGKERELVATITGRGGSTYYADSVKGRFTISRDNAKHTVYLQMNILKPEDTAVYYCAAAGRGSWTTYRFDYWGQGTQVTVSS
polyreactivity (PSR sort gate): high polyreactivity

QVQLVESGGGLVQAGCSLRLSCASSGGIFSWYAMGRYRQAPGKEREFVAAISWRGGRTYYADSVKGRFTISRDNAKNTVYLQMNSLKPEDTAVYYCAVANRAGEDDYWGQGSQVTVSS
polyreactivity (PSR sort gate): high polyreactivity

QVQLVESGGGLVQAGGSLRLSCAASGRIFSVYGMGWYRQAPGKDRELVAAISSSAGSTNYADSVKGRFTISRDNAKNTVYLQMNSLKPEDTAVYYCAAYYRRVVYYPTAYYIRKYDYWGQGTQVTVSS
polyreactivity (PSR sort gate): high polyreactivity

QVQLVESGGGLVQAGGSLRLSCAASGSNFNYNDMGWSRQAPGKERELVAAIDSSGTSTYYADSVKGRFTISRDNAKNTVYLQMNSLKPEDTAVYYCNADSSLGFGYWGQGTQVTVSS
polyreactivity (PSR sort gate): low polyreactivity

QVQLVESGAGLVQAGGSLRLSCAPSGFIFFVNAMGWYRQAPGKERELVADITKIDGTTYYADSVKGRFTISRDNAKNTVYLQMNSLKPEDTAVYYCAAGYRQLSSVRDYDYWGQGTQVTVSS
polyreactivity (PSR sort gate): low polyreactivity

QVWLQESRGGLVQASGSLRLSCAASGTISRDIFMGWYRQAPGKEREFVATIAQGGITNYADSVKGRFTISRDNAKNTVYLLMISVKPGDTEVYYCAARDGNCYWFYYWGQGTQVTVSS
polyreactivity (PSR sort gate): high polyreactivity

QGQLVESGGGLVQAGGSLRLSCAASGRTFIGNVMGWYRQAPGKERELVAAISKSGTRTYYADSVKGRFTISRDIAKNTVYLQMNSLKPEDTAVYYCAASSYTHKRYPSPYDYWGQGTQVTVSA
polyreactivity (PSR sort gate): high polyreactivity

QVQLVESGGGLVQAGGSLRLSCAASGRTFRSYAMGWYRQAPGKERELVAGISYNGGSTYYADSVKGRFTISRDNAKNTVYLQMNSLKPADTAGYYCAATHHYRLYDYWGQGTQVNVSS
polyreactivity (PSR sort gate): low polyreactivity

QVQLVESGGGLVQAGGSLRLSSAASGSIFGYAMGWYRQAPGKERELVARIDWSGGRTYYADSVKGRFTISRDNAKNTVYLQMYSLKPDDTAVYYCYARRYLYRGNIVDYWGQGTQVTVSS
polyreactivity (PSR sort gate): high polyreactivity

QVQLVESGGGLVQAGGSLRLSCAASGYIFYHYAMGWYRQAPGKERELVATISLGGGRTYYADSVKGRFTISRDNAKNTVYLQMNSLKPEDTAVYYCAAKQYGYYSDYYYWGQGTQVTVSS
polyreactivity (PSR sort gate): high polyreactivity

QVQLVESGGGLVQAGGSLRLSCAASGRIFGSYAMGWYRQAPGKERELVAGIRSVGSTNYADSVKGRFTISRDNAKNTVYFQINSLKPEDTAVYYCAARLWHLSYAGQGGDYWGHGTQVTVSS
polyreactivity (PSR sort gate): low polyreactivity

QVQLVESGGGLVQAGGSLRLSCAASGRTFHYNVMGWYRQAPGKERELVAAITNTGGSTYYADSVKGRFTISRDNAKNTVYLQIYSLKPEDTAVYYCAAVIWGRRYGAYPYEYWGQGTQVTVSS
polyreactivity (PSR sort gate): low polyreactivity

QVQLVESGGGLVQAGGSLRLSCAASGSTFDWYAMGWYRQAPGKERELVAAISSDDSTYYADSVKGRFTISRDNAKNTVYLQMNSLKPEDTAVYYCAVDVYSDYGDYGYWGQGTQVTVSS
polyreactivity (PSR sort gate): low polyreactivity

QVQLVESGGGLVQAGGSLRLSCAASGRTFPRYVMGWYRQAPGKERDLVAAIRRSGGSTYYADSVKGRFTISRDNAKNTVYLQMNSLKPDDTAVYYCNRVVYTYISTGSRHGRYYYWGQGTQVTVSS
polyreactivity (PSR sort gate): high polyreactivity

QVQLVESGGGLVQAGGSLRLSCAASGSIFFSNAMGWYRQAPGKERELVAAITSSGASTYYADSVKGRFTISRDNAKNTVYLQMNSLKPEDTAVYYCAVVGRGKRYGYWGQGTQVTVSS
polyreactivity (PSR sort gate): high polyreactivity

QVQLVESGGGLVQSGGSLRLSCAASGSIFTPYSMGWYRQAPGKERELVAGISYRGGTTYYADSVKGRFTISRDNAKNTVYLQMNSLKPEDYAVYYCAAAASSPGGWFYYWGQGTQVTVSS
polyreactivity (PSR sort gate): high polyreactivity

QDQLVESGGGLVQAGGSLRLSCAASGFILKPNAMGWYRQAPGKERELVAAISWSSGSPDYADSVKGRFTISRDNAKNTVYLQMNSLKPEDTAVYYCAADYFVYPDDWYDYWGQGTQVTVSS
polyreactivity (PSR sort gate): low polyreactivity

QVQLVESGGGLVQAGGSLRLSCAASGNILLTNAMGWYRQAPGKEREFVAAIRWSGSRTYYADSVKGRFTISRDNAKNTVYLQMNSLKPEDTAVYYCAVRAVWPVSYGYWYYYWGQGTQVTVSS
polyreactivity (PSR sort gate): high polyreactivity

QVQLVESGGGLVQAGGSLRLSCAASGRTFIYYAMGWYRPAPGKERELVAAITWTGGRTYYADSVKGRFTISRDNAKNTVYLQMNSLKPEDTAVYYWAASDRYGGRDYWGQGTQVTVSS
polyreactivity (PSR sort gate): high polyreactivity

QVQLVESGGGLVQAGGSLRLSCAASGRIFLFYAMGWYRQAPGKESELVAAISVRGGSTYYADSVKGRFTISRDNAKNTVYLQMNSLKPEDTAVYYCAADYPKTYTSKFNYWGQVTQVTVSS
polyreactivity (PSR sort gate): high polyreactivity

QVQLVESGGGLVQAGGSLRLSCAASGSTFGGYAMGWYRQAPGKERELVAAISSSGGITYYADSVKGRFTISRDNAKNTVYLQMNSLKPEDTAVYYCAAPLGGGARWGRWWLYDSWGQGTQVTVSS
polyreactivity (PSR sort gate): low polyreactivity

QVQLVESGGGLVQAGGSLRLSCAASGRIFWRYAMGWYRQAPGKERELVAAITSGGNTYYADSVKGRFTISRDNAKNTVYLQMNSLKPEDTAVYYCATVFSVQGWYFGMNYWGQGTQVTVSS
polyreactivity (PSR sort gate): low polyreactivity

QVQLVESGGGLVQAGGSLRLSCAASGRIFRYNAMGWYRQAPGKERELVAAISWSGGSTYADSVKGRFTISRDNAKNTVYLQMNSLKPEDTAVYYCAADSSDLYVWGYDHWGQGTQVTVSS
polyreactivity (PSR sort gate): low polyreactivity

QVQLVESGGGLVQAGGSLRLSCAASGIIFYIYAMGWYRQAPGKERELVAAISSGGNTYYADSVKGRFTISRDNAKNTVYLQMNSLKPEDTAVYYCAAYSRKVSFQYRYDYWGQGTQVTVSS
polyreactivity (PSR sort gate): high polyreactivity
